Source: article PMC12724345

Experiments:
[1] = biological target: Arabidopsis SUMO1^ΔGG fused to CLuc (split-luciferase assay) (UniProt P55852); experiment: split-luciferase complementation assay in planta; details: Rep^sim NLuc + CLuc SUMO1^ΔGG; n = 12; parent: est. 0.29; read off a plot
[2] = biological target: Arabidopsis SCE1 fused to CLuc (split-luciferase assay) (UniProt Q42551); experiment: split-luciferase complementation assay in planta; details: Rep^sim NLuc + CLuc SCE1; n = 12; parent: est. 0.36; read off a plot
UniProt Q42551, sequence (Q42551 whole entry, the tested form may be a part): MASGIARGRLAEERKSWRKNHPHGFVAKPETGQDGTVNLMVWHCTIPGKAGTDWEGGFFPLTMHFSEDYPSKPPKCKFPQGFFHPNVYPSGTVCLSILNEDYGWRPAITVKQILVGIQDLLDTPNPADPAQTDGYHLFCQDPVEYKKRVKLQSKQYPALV

UniProt P55852, sequence (P55852 1-91, stated change not applied): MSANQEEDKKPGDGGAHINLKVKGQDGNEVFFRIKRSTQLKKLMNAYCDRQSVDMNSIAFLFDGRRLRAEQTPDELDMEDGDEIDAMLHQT

## Rep of TYLCV fused to NLuc (split-luciferase assay) I215A; V216A; I217A
[1]
  response (fraction of total signal): 0.08
[2]
  response (fraction of total signal): 0.075
